# In patent US20150344570A1 (published 2015):
# Positions count from the first letter of the chain named.
# T1: FcγRIIa H (human, UniProt P12318 34-217)
# T1 construct: extracellular domain; also called FcγRIIa type H; 2aH
# T1 sequence (looked up): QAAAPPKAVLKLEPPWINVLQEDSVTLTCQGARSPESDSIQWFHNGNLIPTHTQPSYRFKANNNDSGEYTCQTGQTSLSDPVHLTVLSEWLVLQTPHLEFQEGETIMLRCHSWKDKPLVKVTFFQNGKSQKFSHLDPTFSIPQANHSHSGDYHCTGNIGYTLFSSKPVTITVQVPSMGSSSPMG
# T2: FcγRIIa R extracellular domain with C-terminal His tag (human, UniProt P12318 34-217)
# T2 construct: extracellular domain; also called FcgRIIa R; 2aR; not shown: His tag at the C terminus
# T2 sequence (looked up): T1 sequence (looked up) with H134R
# T3: FcγRIIb (human, UniProt P31994 43-217)
# T3 construct: extracellular domain; also called 2b; FcgRIIb
# T3 sequence (looked up): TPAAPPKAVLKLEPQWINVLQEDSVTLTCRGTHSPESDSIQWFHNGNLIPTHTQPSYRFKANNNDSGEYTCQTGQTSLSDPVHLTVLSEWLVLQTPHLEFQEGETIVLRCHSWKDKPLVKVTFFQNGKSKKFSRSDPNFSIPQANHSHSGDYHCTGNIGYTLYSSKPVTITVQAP
# T4: FcγRIIb (human, UniProt P31994 43-217)
# T4 construct: extracellular domain; also called FcgRIIb; 2b
# T4 sequence (looked up): T3 sequence (looked up)
# B1: GpH7-A5/GpH7-B3 variant D270_01G/GpL16-k0 (antibody, human IgG1, kappa)
# heavy 1: not shown
# heavy 2: not shown
# light: DIVMTQSPLSLPVTPGEPASISCQASESLVHSNRNTYLHWYLQKPGQSPQLLIYKVSNRFSGVPDRFSGSGSGTDFTLKISRVEAEDVGVYYCSQNTHVPPTFGQGTKVEIERTVAAPSVFIFPPSDEQLKSGTASVVCLLNNFYPREAKVQWKVDNALQSGNSQESVTEQDSKDSTYSLSSTLTLSKADYEKHKVYACEVTHQGLSSPVTKSFNRGEC
# notes: Heterodimerized anti-glypican-3 IgG1 (He Ab); mutation in the B3 H chain only; also called He Ab
# B2: GpH7-A5/GpH7-B3 variant D270_15Y/GpL16-k0 (antibody, human IgG1, kappa)
# heavy 1: not shown
# heavy 2: not shown
# light: B1 light
# notes: as for B1
# B3: GpH7-A5/GpH7-B3 variant E269_06M/GpL16-k0 (antibody, human IgG1, kappa)
# heavy 1: not shown
# heavy 2: not shown
# light: B1 light
# notes: as for B1
# B4: GpH7-A5/GpH7-B3 variant D270_18N/GpL16-k0 (antibody, human IgG1, kappa)
# heavy 1: not shown
# heavy 2: not shown
# light: B1 light
# notes: as for B1
# B5: GpH7-A5/GpH7-B3 variant D270_10E/GpL16-k0 (antibody, human IgG1, kappa)
# heavy 1: not shown
# heavy 2: not shown
# light: B1 light
# notes: as for B1
# B6: GpH7-A5/GpH7-B3 variant E269_04F/GpL16-k0 (antibody, human IgG1, kappa)
# heavy 1: not shown
# heavy 2: not shown
# light: B1 light
# notes: as for B1
# B7: GpH7-A5/GpH7-B3 variant D270_08L/GpL16-k0 (antibody, human IgG1, kappa)
# heavy 1: not shown
# heavy 2: not shown
# light: B1 light
# notes: as for B1
# B8: GpH7-A5/GpH7-B3 variant E269_08L/GpL16-k0 (antibody, human IgG1, kappa)
# heavy 1: not shown
# heavy 2: not shown
# light: B1 light
# notes: as for B1
# B9: GpH7-A5/GpH7-B3 variant E269_11K/GpL16-k0 (antibody, human IgG1, kappa)
# heavy 1: not shown
# heavy 2: not shown
# light: B1 light
# notes: as for B1
# B10: GpH7-A5/GpH7-B3 variant D270_12R/GpL16-k0 (antibody, human IgG1, kappa)
# heavy 1: not shown
# heavy 2: not shown
# light: B1 light
# notes: as for B1
# B11: GpH7-A5/GpH7-B3 variant D270_02A/GpL16-k0 (antibody, human IgG1, kappa)
# heavy 1: not shown
# heavy 2: not shown
# light: B1 light
# notes: as for B1
# B12: GpH7-A5/GpH7-B3 variant D270_04F/GpL16-k0 (antibody, human IgG1, kappa)
# heavy 1: not shown
# heavy 2: not shown
# light: B1 light
# notes: as for B1
# B13: GpH7-A5/GpH7-B3 variant D270_14T/GpL16-k0 (antibody, human IgG1, kappa)
# heavy 1: not shown
# heavy 2: not shown
# light: B1 light
# notes: as for B1
# B14: GpH7-A5/GpH7-B3 variant D270_11K/GpL16-k0 (antibody, human IgG1, kappa)
# heavy 1: not shown
# heavy 2: not shown
# light: B1 light
# notes: as for B1
# B15: GpH7-A5/GpH7-B3 variant E269_02A/GpL16-k0 (antibody, human IgG1, kappa)
# heavy 1: not shown
# heavy 2: not shown
# light: B1 light
# notes: as for B1
# B16: GpH7-A5/GpH7-B3 variant D270_19Q/GpL16-k0 (antibody, human IgG1, kappa)
# heavy 1: not shown
# heavy 2: not shown
# light: B1 light
# notes: as for B1
# B17: GpH7-A5/GpH7-B3 variant D270_16H/GpL16-k0 (antibody, human IgG1, kappa)
# heavy 1: not shown
# heavy 2: not shown
# light: B1 light
# notes: as for B1
# B18: GpH7-A5/GpH7-B3 variant E269_07I/GpL16-k0 (antibody, human IgG1, kappa)
# heavy 1: not shown
# heavy 2: not shown
# light: B1 light
# notes: as for B1
# B19: GpH7-A5/GpH7-B3 variant D270_07I/GpL16-k0 (antibody, human IgG1, kappa)
# heavy 1: not shown
# heavy 2: not shown
# light: B1 light
# notes: as for B1
# B20: GpH7-A5/GpH7-B3 variant E269_03V/GpL16-k0 (antibody, human IgG1, kappa)
# heavy 1: not shown
# heavy 2: not shown
# light: B1 light
# notes: as for B1
# B21: GpH7-A5/GpH7-B3 variant D270_03V/GpL16-k0 (antibody, human IgG1, kappa)
# heavy 1: not shown
# heavy 2: not shown
# light: B1 light
# notes: as for B1
# B22: GpH7-A5/GpH7-B3 variant D270_06M/GpL16-k0 (antibody, human IgG1, kappa)
# heavy 1: not shown
# heavy 2: not shown
# light: B1 light
# notes: as for B1
# B23: GpH7-A5/GpH7-B3 variant E269_13S/GpL16-k0 (antibody, human IgG1, kappa)
# heavy 1: not shown
# heavy 2: not shown
# light: B1 light
# notes: as for B1
# B24: GpH7-A5/GpH7-B3 variant D270_13S/GpL16-k0 (antibody, human IgG1, kappa)
# heavy 1: not shown
# heavy 2: not shown
# light: B1 light
# notes: as for B1
# B25: GpH7-A5/GpH7-B3 variant E269_12R/GpL16-k0 (antibody, human IgG1, kappa)
# heavy 1: not shown
# heavy 2: not shown
# light: B1 light
# notes: as for B1
# B26: GpH7-A5/GpH7-B3 variant E269_14T/GpL16-k0 (antibody, human IgG1, kappa)
# heavy 1: not shown
# heavy 2: not shown
# light: B1 light
# notes: as for B1
# B27: GpH7-A5/GpH7-B3 variant D270_20W/GpL16-k0 (antibody, human IgG1, kappa)
# heavy 1: not shown
# heavy 2: not shown
# light: B1 light
# notes: as for B1
# B28: GpH7-A5/GpH7-B3 variant T335_10E/GpL16-k0 (antibody, human IgG1, kappa)
# heavy 1: not shown
# heavy 2: not shown
# light: B1 light
# notes: heterodimerized: alteration in one H chain only; also called He Ab T335_10E
# B29: GpH7-A5/GpH7-B3 variant T335_07I/GpL16-k0 (antibody, human IgG1, kappa)
# heavy 1: not shown
# heavy 2: not shown
# light: B1 light
# notes: heterodimerized: alteration in one H chain only; also called He Ab T335_07I
# B30: GpH7-A5/GpH7-B3 variant T335_13S/GpL16-k0 (antibody, human IgG1, kappa)
# heavy 1: not shown
# heavy 2: not shown
# light: B1 light
# notes: heterodimerized: alteration in one H chain only; also called He Ab T335_13S
# B31: GpH7-A5/GpH7-B3 variant D265_15Y/GpL16-k0 (antibody, human IgG1, kappa)
# heavy 1: not shown
# heavy 2: not shown
# light: B1 light
# notes: heterodimerized anti-glypican-3 IgG1; alteration in one H chain only; also called He Ab
# B32: GpH7-A5/GpH7-B3 variant V266_12R/GpL16-k0 (antibody, human IgG1, kappa)
# heavy 1: not shown
# heavy 2: not shown
# light: B1 light
# notes: as for B31
# B33: GpH7-A5/GpH7-B3 variant D265_20W/GpL16-k0 (antibody, human IgG1, kappa)
# heavy 1: not shown
# heavy 2: not shown
# light: B1 light
# notes: as for B31
# Target: T1, FcγRIIa H
# Test: ratio of He/Con_2aH to He/Con_2b (FcγRIIb); SPR
row,He_2aH/2b (IIaH/IIb ratio),Binder
1,1.72,B1
2,1.6,B2
3,1.58,B3
4,1.55,B4
5,1.34,B5
6,1.52,B6
7,1.41,B7
8,1.57,B8
9,2.87,B9
10,2.16,B10
11,1.58,B11
12,1.42,B12
13,1.3,B13
14,2.17,B14
15,1.56,B15
16,1.77,B16
17,1.51,B17
18,1.52,B18
19,1.54,B19
20,1.49,B20
21,1.56,B21
22,1.54,B22
23,1.46,B23
24,1.61,B24
25,1.86,B25
26,1.37,B26
27,1.74,B27

# Target: T2, FcγRIIa R extracellular domain with …
# Test: SPR (Biacore), relative FcγRIIa R binding, GpH7-A5/GpH7-B3/GpL16-k0 = 100
row,He/Con_2aR,Binder
1,111 % of control,B28
2,109 % of control,B29
3,110 % of control,B30

# Target: T1, FcγRIIa H
# Test: SPR (Biacore), captured antibody, FcγR as analyte; GpH7-A5/GpH7-B3/GpL16-k0 = 100
# Protocol: (§1) The heterodimerized antibodies He Abs in which one of the H chains was introduced with an alteration were assayed for their binding activities to each activating FcγR and inhibitory FcγR according to the method described in Example 4. […] The activating FcγRs in FIGS. 26, 27, 28, and 29 are FcγRIa, FcγRIIa (R), FcγRIIa (H), and FcγRIIIa, respectively.
# (§2) Analysis of interaction between objective antibody and the FcγR was carried out using Biacore T100 (GE Healthcare). HBS-EP+ (GE Healthcare) was used as the running buffer, and the measurement temperature was set to 25° C. Chips produced by immobilizing the antigen peptide by the amine coupling method to a Series S Sencor Chip CM5 (GE Healthcare), or alternatively, chips produced by allowing preliminarily biotinylated antigen peptides to interact with and immobilize onto a Series S Sensor Chip SA (certified) (GE Healthcare) were used. Antibodies of interest were captured onto an antigen peptide-immobilized chip, and allowed to interact to each FcγR diluted with running buffer. To regenerate and repeatedly use the chip, the antibodies captured on the chip were washed off by reacting 10 mM glycine-HCl, pH 1.5.
row,He/Con_2aH (relative binding),Binder
1,52.5%,B1
2,71.9%,B2
3,73.6%,B3
4,62.5%,B4
5,102%,B5
6,68.5%,B6
7,75.8%,B7
8,67.4%,B8
9,51.1%,B9
10,39.5%,B10
11,76.4%,B11
12,75.4%,B12
13,75.3%,B13
14,44%,B14
15,77.8%,B15
16,85%,B16
17,71.5%,B17
18,66.6%,B18
19,64%,B19
20,67.5%,B20
21,61.8%,B21
22,74.4%,B22
23,70%,B23
24,71.2%,B24
25,46.8%,B25
26,69.6%,B26
27,60.2%,B27

# Target: T3, FcγRIIb
# Test: as above
# Protocol: as §1, §2
row,He/Con_2b (relative binding),Binder
1,30.5%,B1
2,44.9%,B2
3,46.7%,B3
4,40.3%,B4
5,76.5%,B5
6,45%,B6
7,53.6%,B7
8,42.9%,B8
9,17.8%,B9
10,18.3%,B10
11,48.3%,B11
12,53.1%,B12
13,57.8%,B13
14,20.3%,B14
15,49.9%,B15
16,48%,B16
17,47.2%,B17
18,43.9%,B18
19,41.5%,B19
20,45.1%,B20
21,39.5%,B21
22,48.2%,B22
23,47.8%,B23
24,44.2%,B24
25,25.2%,B25
26,50.6%,B26
27,34.7%,B27

# Target: T4, FcγRIIb
# Test: SPR (Biacore), captured antibody, FcγR as analyte; relative binding, control GpH7-A5/GpH7-B3/GpL16-k0 = 100
# Protocol: as §1, §2
row,He/Con_2b,Binder
1,0.6 control = 100,B31
2,-1.1 control = 100,B32
3,1.1 control = 100,B33
